{"source": "paper PMC10849636", "about": "(bioRxiv, 2024)", "proteins": {"B1": {"name": "full-length WT HIV-1 integrase (IN) (enzyme)", "chain": "FLDGIDKAQEEHEKYHSNWRAMASDFNLPPVVAKEIVASCDKCQLKGEAMHGQVDCSPGIWQLDCTHLEGKVILVAVHVASGYIEAEVIPAETGQETAYFLLKLAGRWPVKTVHTDNGSNFTSTTVKAACWWAGIKQEFGIPYNPQSQGVIESMNKELKKIIGQVRDQAEHLKTAVQMAVFIHNFKRKGGIGGYSAGERIVDIIATDIQTKELQKQITKIQNFRVYYRDSRDPVWKGPAKLLWKGEGAVVIQDNSDIKVVPRRKAKIIRDYGKQMAGDDCVASRQDED"}}, "target": "the molecule itself", "assay": "SEC", "data": [{"protein": "B1", "values": [{"measurement": "binding result", "result": "binds"}]}]}
